Experimental data published in publication PMC4081078.

Experiments:
TRF2 [1] = biological target: T1, TRF2 (UniProt Q15554 1-542); assay: EMSA
TRF2ΔB = TRF2ΔB (UniProt Q15554 87-542); assay: EMSA
TRF2 [2] = biological target: T1, TRF2; assay: EMSA; remark: listed apart in the source
TRF1 = TRF1 (UniProt P54274 1-439); assay: EMSA
TRF2 [3] = biological target: T1, TRF2; assay: EMSA; remark: listed apart in the source
TRF2 [4] = biological target: T1, TRF2; assay: pull-down, immunoblot

T1 sequence (Q15554 whole entry): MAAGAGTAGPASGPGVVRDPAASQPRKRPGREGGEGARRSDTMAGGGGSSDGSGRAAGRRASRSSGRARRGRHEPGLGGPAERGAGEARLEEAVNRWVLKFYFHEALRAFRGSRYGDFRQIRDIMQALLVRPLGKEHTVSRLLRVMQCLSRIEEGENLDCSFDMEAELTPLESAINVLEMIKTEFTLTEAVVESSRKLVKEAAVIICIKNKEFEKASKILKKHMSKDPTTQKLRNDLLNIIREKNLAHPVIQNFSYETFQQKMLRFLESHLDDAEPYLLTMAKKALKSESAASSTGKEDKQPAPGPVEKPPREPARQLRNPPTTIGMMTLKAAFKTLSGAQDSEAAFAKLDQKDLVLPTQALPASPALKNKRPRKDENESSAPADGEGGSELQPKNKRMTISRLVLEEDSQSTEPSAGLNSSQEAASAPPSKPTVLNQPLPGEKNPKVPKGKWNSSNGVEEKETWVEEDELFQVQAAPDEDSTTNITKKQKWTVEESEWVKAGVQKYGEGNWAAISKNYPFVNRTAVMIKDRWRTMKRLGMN
Chain of TRF2ΔB (Q15554 87-542, stated change not applied): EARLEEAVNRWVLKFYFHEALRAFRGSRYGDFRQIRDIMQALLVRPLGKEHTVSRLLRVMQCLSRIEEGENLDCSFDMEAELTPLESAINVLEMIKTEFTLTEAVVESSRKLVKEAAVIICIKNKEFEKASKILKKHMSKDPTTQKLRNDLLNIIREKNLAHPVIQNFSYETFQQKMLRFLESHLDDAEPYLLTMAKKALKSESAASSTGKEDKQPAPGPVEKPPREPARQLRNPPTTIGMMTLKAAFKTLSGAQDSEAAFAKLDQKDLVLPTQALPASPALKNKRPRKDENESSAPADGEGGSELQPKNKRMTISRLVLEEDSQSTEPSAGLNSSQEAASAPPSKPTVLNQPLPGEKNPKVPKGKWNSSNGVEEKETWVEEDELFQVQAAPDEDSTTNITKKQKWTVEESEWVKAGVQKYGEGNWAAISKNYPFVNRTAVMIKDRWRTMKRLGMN
Chain of TRF1 (P54274 whole entry): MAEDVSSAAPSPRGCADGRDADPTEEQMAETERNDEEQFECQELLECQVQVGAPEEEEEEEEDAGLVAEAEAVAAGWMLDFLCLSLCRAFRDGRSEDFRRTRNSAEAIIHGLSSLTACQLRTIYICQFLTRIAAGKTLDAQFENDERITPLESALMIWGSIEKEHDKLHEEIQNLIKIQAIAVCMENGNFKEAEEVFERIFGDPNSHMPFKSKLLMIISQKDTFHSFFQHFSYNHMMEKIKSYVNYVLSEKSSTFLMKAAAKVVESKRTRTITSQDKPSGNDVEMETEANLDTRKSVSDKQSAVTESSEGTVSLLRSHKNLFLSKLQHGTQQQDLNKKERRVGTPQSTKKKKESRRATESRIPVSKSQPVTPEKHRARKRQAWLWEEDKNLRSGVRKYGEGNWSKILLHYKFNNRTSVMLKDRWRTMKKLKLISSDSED

B1: *G77telo/C38telo (dsDNA)
DNA 1: AGCTGAGCATGTCCAGACATGTCCTAGGGTTAGGGTTAGGGTTAGGGTTAGGGTTAGGGTTAGGGTTAGGGTTAGGG
DNA 2: TAACCCTAACCCTAGGACATGTCTGGACATGCTCAGCT
modifications: phosphorothioate after nt 1 of each strand
TRF2 [1]
  binding result: binds

B2: *G77telo/C50telo (dsDNA)
DNA 1: B1 DNA 1
DNA 2: TAACCCTAACCCTAACCCTAACCCTAGGACATGTCTGGACATGCTCAGCT
modifications: phosphorothioate after nt 1 of each strand
TRF2ΔB
  binding result: binds
TRF2 [2]
  binding result: binds

B3: *G77telo/C77telo (dsDNA)
DNA 1: B1 DNA 1
DNA 2: CCCTAACCCTAACCCTAACCCTAACCCTAACCCTAACCCTAACCCTAACCCTAGGACATGTCTGGACATGCTCAGCT
modifications: phosphorothioate after nt 1 of each strand
TRF1
  binding result: binds
TRF2ΔB
  binding result: binds
TRF2 [3]
  binding result: binds

B4: b-G68telo/C50telo (dsDNA)
DNA 1: AGCTGAGCATGTCCAGACATGTCCTAGGGTTAGGGTTAGGGTTAGGGTTAGGGTTAGGGTTAGGGTTA
DNA 2: B2 DNA 2
modifications: phosphorothioate after nt 1 of each strand
TRF2 [4]
  binding result: binds
